Molecular target: CD3 (human)
Experiment: ELISA or FCM (as in Example 2)

Binder | EC50 [µg/mL]
Ly1966 (multi-specific antibody, CD19/CD3/CD137) chain 1: QVQLQQSGAELVRPGSSVKISCKASGYAFSSYWMNWVKQRPGQGLEWIGQIWPGDGDTNYNGKFKGKATLTADESSSTAYMQLSSLASEDSAVYFCARRETTTVGRYYYAMDYWGQGTTVTVSSASTKGPSVFPLAPSSKSTSGGTAALGCLVKDYFPEPVTVSWNSGALTSGVHTFPAVLQSSGLYSLSSVVTVPSSSLGTQTYICNVNHKPSNTKVDKKVEPKSCGGGGSGGGGSGGGGSGGGGSEVQLVESGGGLVQPGGSLRLSCAASGFTFSTYAMNWVRQAPGKGLEWVGRIRSKYNNYATYYADSVKGRFTISRDDSKNSLYLQMNSLKTEDTAVYYCVRHGNFGNSYVSWFAYWGQGTLVTVSSGGGGSDKTHTCPPCPAPEAAGPSVFLFPPKPKDTLMISRTPEVTCVVVDVSHEDPEVKFNWYVDGVEVHNAKTKPREEQYNSTYRVVSVLTVLHQDWLNGKEYKCKVSNKALPAPIEKTISKAKGQPREPQVYTLPPSREEMTKNQVSLWCLVKGFYPSDIAVEWESNGQPENNYKTTPPVLDSDGSFFLYSKLTVDKSRWQQGNVFSCSVMHEALHNHYTQKSLSLSPGGGGGSGGGGSGGGGSGGGGSQVQLVQSGAEVKKPGASVKVSCKASGYTFAGFEMHWVRQAPGQGLEWMGAIDPKTGGTDYNQKFKDRVTMTRDTSISTAYMELSRLRSDDTAVYYCARDLGYFDVWGQGTLVTVSS chain 2: QVQLQQSGAELVRPGSSVKISCKASGYAFSSYWMNWVKQRPGQGLEWIGQIWPGDGDTNYNGKFKGKATLTADESSSTAYMQLSSLASEDSAVYFCARRETTTVGRYYYAMDYWGQGTTVTVSSASTKGPSVFPLAPSSKSTSGGTAALGCLVKDYFPEPVTVSWNSGALTSGVHTFPAVLQSSGLYSLSSVVTVPSSSLGTQTYICNVNHKPSNTKVDKKVEPKSCGGGGSGGGGSGGGGSGGGGSQAVVTQEPSLTVSPGGTVTLTCRSSTGAVTTSNYANWVQQKPGQAPRGLIGGTNKRAPWTPARFSGSLLGGKAALTITGAQAEDEADYYCALWYSNLWVFGGGTKLTVLGGGGSDKTHTCPPCPAPEAAGPSVFLFPPKPKDTLMISRTPEVTCVVVDVSHEDPEVKFNWYVDGVEVHNAKTKPREEQYNSTYRVVSVLTVLHQDWLNGKEYKCKVSNKALPAPIEKTISKAKGQPREPQVYTLPPSREEMTKNQVSLSCAVKGFYPSDIAVEWESNGQPENNYKTTPPVLDSDGSFFLVSKLTVDKSRWQQGNVFSCSVMHEALHNRFTQKSLSLSPGGGGGSGGGGSGGGGSGGGGSDIQMTQSPSSLSASVGDRVTITCRASQDIRSNLNWYQQKPGGAVKLLIYYTSRLHSGVPSRFSGSGSGTDYTLTISSLQPEDFATYFCQQSEKLPRTFGGGTKVEIR chain 3: not shown | 0.348
Ly1967 (multi-specific antibody, CD19/CD3/CD137 multi-specific) chain 1: QVQLQQSGAELVRPGSSVKISCKASGYAFSSYWMNWVKQRPGQGLEWIGQIWPGDGDTNYNGKFKGKATLTADESSSTAYMQLSSLASEDSAVYFCARRETTTVGRYYYAMDYWGQGTTVTVSSASTKGPSVFPLAPSSKSTSGGTAALGCLVKDYFPEPVTVSWNSGALTSGVHTFPAVLQSSGLYSLSSVVTVPSSSLGTQTYICNVNHKPSNTKVDKKVEPKSCGGGGSGGGGSGGGGSGGGGSEVQLVESGGGLVQPGGSLRLSCAASGFTFSTYAMNWVRQAPGKGLEWVGRIRSKYNNYATYYADSVKGRFTISRDDSKNSLYLQMNSLKTEDTAVYYCVRHGNFGNSYVSWFAYWGQGTLVTVSSGGGGSDKTHTCPPCPAPEAAGPSVFLFPPKPKDTLMISRTPEVTCVVVDVSHEDPEVKFNWYVDGVEVHNAKTKPREEQYNSTYRVVSVLTVLHQDWLNGKEYKCKVSNKALPAPIEKTISKAKGQPREPQVYTLPPSREEMTKNQVSLWCLVKGFYPSDIAVEWESNGQPENNYKTTPPVLDSDGSFFLYSKLTVDKSRWQQGNVFSCSVMHEALHNHYTQKSLSLSPGGGGGSGGGGSGGGGSGGGGSQVQLVQSGAEVKKPGASVKVSCKASGYTFAGFEMHWVRQAPGQGLEWMGAIDPKTGGTDYNQKFKDRVTMTRDTSISTAYMELSRLRSDDTAVYYCARDLGYFDVWGQGTLVTVSS chain 2: QVQLQQSGAELVRPGSSVKISCKASGYAFSSYWMNWVKQRPGQGLEWIGQIWPGDGDTNYNGKFKGKATLTADESSSTAYMQLSSLASEDSAVYFCARRETTTVGRYYYAMDYWGQGTTVTVSSASTKGPSVFPLAPSSKSTSGGTAALGCLVKDYFPEPVTVSWNSGALTSGVHTFPAVLQSSGLYSLSSVVTVPSSSLGTQTYICNVNHKPSNTKVDKKVEPKSCGGGGSGGGGSGGGGSGGGGSQAVVTQEPSLTVSPGGTVTLTCRSSTGAVTTSNYANWVQQKPGQAPRGLIGGTNKRAPWTPARFSGSLLGGKAALTITGAQAEDEADYYCALWYSNLWVFGGGTKLTVLGGGGSDKTHTCPPCPAPEAAGPSVFLFPPKPKDTLMISRTPEVTCVVVDVSHEDPEVKFNWYVDGVEVHNAKTKPREEQYNSTYRVVSVLTVLHQDWLNGKEYKCKVSNKALPAPIEKTISKAKGQPREPQVYTLPPSREEMTKNQVSLSCAVKGFYPSDIAVEWESNGQPENNYKTTPPVLDSDGSFFLVSKLTVDKSRWQQGNVFSCSVMHEALHNHYTQKSLSLSPGGGGGSGGGGSGGGGSGGGGSDIQMTQSPSSLSASVGDRVTITCRASQDIRSNLNWYQQKPGGAVKLLIYYTSRLHSGVPSRFSGSGSGTDYTLTISSLQPEDFATYFCQQSEKLPRTFGGGTKVEIR chain 3: not shown | 1.56
Ly2278 (bispecific antibody, CD19/CD3; central CD3 Fv) chain 1: QVQLQQSGAELVRPGSSVKISCKASGYAFSSYWMNWVKQRPGQGLEWIGQIWPGDGDTNYNGKFKGKATLTADESSSTAYMQLSSLASEDSAVYFCARRETTTVGRYYYAMDYWGQGTTVTVSSASTKGPSVFPLAPSSKSTSGGTAALGCLVKDYFPEPVTVSWNSGALTSGVHTFPAVLQSSGLYSLSSVVTVPSSSLGTQTYICNVNHKPSNTKVDKKVEPKSCGGGGSGGGGSGGGGSGGGGSEVQLVESGGGLVQPGGSLRLSCAASGFTFSTYAMNWVRQAPGKGLEWVGRIRSKYNNYATYYADSVKGRFTISRDDSKNSLYLQMNSLKTEDTAVYYCVRHGNFGNSYVSWFAYWGQGTLVTVSSGGGGSDKTHTCPPCPAPEAAGPSVFLFPPKPKDTLMISRTPEVTCVVVDVSHEDPEVKFNWYVDGVEVHNAKTKPREEQYNSTYRVVSVLTVLHQDWLNGKEYKCKVSNKALPAPIEKTISKAKGQPREPQVYTLPPSREEMTKNQVSLWCLVKGFYPSDIAVEWESNGQPENNYKTTPPVLDSDGSFFLYSKLTVDKSRWQQGNVFSCSVMHEALHNHYTQKSLSLSPG chain 2: QVQLQQSGAELVRPGSSVKISCKASGYAFSSYWMNWVKQRPGQGLEWIGQIWPGDGDTNYNGKFKGKATLTADESSSTAYMQLSSLASEDSAVYFCARRETTTVGRYYYAMDYWGQGTTVTVSSASTKGPSVFPLAPSSKSTSGGTAALGCLVKDYFPEPVTVSWNSGALTSGVHTFPAVLQSSGLYSLSSVVTVPSSSLGTQTYICNVNHKPSNTKVDKKVEPKSCGGGGSGGGGSGGGGSGGGGSQAVVTQEPSLTVSPGGTVTLTCRSSTGAVTTSNYANWVQQKPGQAPRGLIGGTNKRAPWTPARFSGSLLGGKAALTITGAQAEDEADYYCALWYSNLWVFGGGTKLTVLGGGGSDKTHTCPPCPAPEAAGPSVFLFPPKPKDTLMISRTPEVTCVVVDVSHEDPEVKFNWYVDGVEVHNAKTKPREEQYNSTYRVVSVLTVLHQDWLNGKEYKCKVSNKALPAPIEKTISKAKGQPREPQVYTLPPSREEMTKNQVSLSCAVKGFYPSDIAVEWESNGQPENNYKTTPPVLDSDGSFFLVSKLTVDKSRWQQGNVFSCSVMHEALHNRFTQKSLSLSPG chain 3: not shown | 1.46

From patent EP4803149A2 (Lyvgen Biopharma Holdings Limited, dated 2026)
